Laboratory results taken from publication PMC3717276, “Optimization and validation of mitochondria-based functional assay as a useful tool to identify BH3-like molecules selectively targeting anti-apoptotic Bcl-2 proteins” (BMC Biotechnology, 2013).

Assays:
[1] = biological target: Human Bcl-2 protein (isoform 2 construct), N-terminal 6xHis tagged recombinant protein (human); test: SPR; competitive solution binding: protein (20 nM) pre-incubated with tested BH3 peptide for at least 30 min, injected over immobilised biotin-Bim BH3 peptide; response at 30 s of dissociation
[2] = biological target: Human Bcl-2 protein (isoform 2 construct), N-terminal 6xHis tagged recombinant protein (human); test: fluorescence polarisation; competition: Mcl-1 (20 nM) or Bcl-2 (40 nM) pre-incubated with FAM-Bid (2 nM and 2.5 nM), tested BH3 peptide added, 2-3 h; 100 mM potassium phosphate, pH 7.5, 100 ug/ml bovine gamma globulin, 0.02% sodium azide; Ki calculated from IC50

Row | Binder | IC50 [1] | Ki [2]
1 | PAELEVECATQLRRFGDKLNFRQKLL [Noxa BH3 peptide (residues 18-43)] | > 30000 nM | > 10000 nM
2 | NLWAAQRYGRELRRMSDEFVDSFKKG [Bad BH3 peptide (residues 103-128)] | 4.37 nM | 7.1 nM
